The target in data set [1] is Pseudomonas phage LUZ24 small terminase subunit (TerS) (Pseudomonas phage LUZ24). As to the kind of experiment: AUC; sedimentation velocity; TerS from heparin peak 2 (850 mM NaCl); 40 000 rpm, 6 °C; 20 mM Tris-HCl pH 7.5, 150 mM NaCl, 3 mM DTT, 2.5% glycerol; 1.3-2.2 mg/ml.
The target of data set [2] is Pseudomonas phage NV1 small terminase subunit (TerS) (Pseudomonas phage NV1). As to the kind of experiment: crystal structure; TerS from heparin peak 2 at 7.5 mg/ml, vapor diffusion hanging drop; PaP3 at 3.0 Å, NV1 at 3.95 Å.
Data set [3] shares this target. The data set is described as follows: AUC; sedimentation velocity; TerS from heparin peak 2 (850 mM NaCl); 40 000 rpm, 6 °C; 20 mM Tris-HCl pH 7.5, 150 mM NaCl, 3 mM DTT, 2.5% glycerol; 1.3-2.2 mg/ml.
Data set [4] shares this target. The data set is described as follows: SEC-SAXS; TerS from heparin peak 2; PaP3 at 1.7 mg/ml, NV1 at 2.0 mg/ml; Superdex 200 10/300 GL; 20 mM Tris-HCl pH 8.0, 150 mM NaCl, 2.5% glycerol, 0.5 mM TCEP; 4 °C. In general terms: SEC sorts molecules by how far they enter the pores of the column.
Data set [5] has as its target Pseudomonas phage PaP3 small terminase subunit (TerS) (Pseudomonas phage PaP3). The data set is described as follows: crystal structure; TerS from heparin peak 2 at 7.5 mg/ml, vapor diffusion hanging drop; PaP3 at 3.0 Å, NV1 at 3.95 Å.
Data set [6] shares this target. As to the kind of experiment: AUC; sedimentation velocity; TerS from heparin peak 2 (850 mM NaCl); 40 000 rpm, 6 °C; 20 mM Tris-HCl pH 7.5, 150 mM NaCl, 3 mM DTT, 2.5% glycerol; 1.3-2.2 mg/ml.
Data set [7] has the same target. The data set is described as follows: SEC-SAXS; TerS from heparin peak 2; PaP3 at 1.7 mg/ml, NV1 at 2.0 mg/ml; Superdex 200 10/300 GL; 20 mM Tris-HCl pH 8.0, 150 mM NaCl, 2.5% glycerol, 0.5 mM TCEP; 4 °C.
The target of data set [8] is T1, PaP3 TerS WT (small terminase, peak 2) (Pseudomonas phage PaP3, UniProt Q8H9R5 1-152).
T1 sequence: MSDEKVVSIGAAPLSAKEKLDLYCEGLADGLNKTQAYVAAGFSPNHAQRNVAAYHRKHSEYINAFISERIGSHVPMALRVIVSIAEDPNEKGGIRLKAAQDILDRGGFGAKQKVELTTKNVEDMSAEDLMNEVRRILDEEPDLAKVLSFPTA
As to the kind of experiment: EMSA; agarose gel, 0-40 uM TerS; EMSA: incubation 37 C 30 min (binding buffer not stated; proteins in GF buffer 20 mM Tris-HCl pH 7.5, 150 mM NaCl, 5 mM bME, 2.5% glycerol); 1% agarose or 4-16% acrylamide gel, 0.5x TBE, 4 C. The following applies: protein: recombinant; tags: GST removed by PreScission protease; chain copies: 9; label: 5' Cy3 on both strands; blunt. A general note: A gel shift assay detects complexes by their altered migration in electrophoresis.

In data set [1], “Pseudomonas phage LUZ24 small terminase subunit (TerS) (natural protein)” came in with a stoichiometry N of 9 mer.

Regarding “Pseudomonas phage NV1 small terminase subunit (TerS) (natural protein)”, the stoichiometry N in data set [2] is 9; in data set [3], 9 mer; in data set [4], 9.

Turning to “Pseudomonas phage PaP3 small terminase subunit (TerS) (natural protein)”, the stoichiometry N in data set [5] stood at 9; in data set [6] it was 9 mer; in data set [7] it was 9.

B1: Cy3-cos (dsDNA)
DNA 1: GCCGGCCCCTTTCCGCGTTA
DNA 2: TAACGCGGAAAGGGGCCGGC
For the molecule B1, in data set [8], the binding result is reported as “binds”.

The term stoichiometry N denotes a count of units in the complex or per binding partner.

Source of the values: PMC7672466, “Biophysical analysis of Pseudomonas-phage PaP3 small terminase suggests a mechanism for sequence-specific DNA-binding by lateral interdigitation”.
